# Measured values reported in patent publication US20080032931A1.
# Target: HV62, synthetic peptide corresponding to residues 33 to 94 of human VAMP-2 (human) (UniProt P63027)
substance,measurement,value
"enterokinase-nicked recombinant single-chain TeNT, wild type L chain (enzyme)",Initial rate of cleavage of HV62 (nmol · min^-1mg^-1),22.7
